pKd: −log10 of the molar value.
Columns and labels:
Assay in all cases: BLI; […]; 300 s association, 300 s dissociation; 10x kinetics buffer; […]; global fit, 1:1 model; […]
[1] = molecular target: SARS-CoV-2 XBB.1.5 RBD, biotinylated (SARS-CoV-2) (UniProt P0DTC2)
[2] = molecular target: SARS-CoV-2 Wuhan-Hu-1 RBD, biotinylated (SARS-CoV-2) (UniProt P0DTC2)
[3] = molecular target: SARS-CoV-2 BA.5 RBD, biotinylated (SARS-CoV-2) (UniProt P0DTC2)
[4] = molecular target: SARS-CoV-2 BA.2.75.2 RBD, biotinylated (SARS-CoV-2) (UniProt P0DTC2)
[5] = molecular target: SARS-CoV-2 Delta RBD, biotinylated (SARS-CoV-2) (UniProt P0DTC2)
[6] = molecular target: SARS-CoV-2 BQ.1.1 RBD, biotinylated (SARS-CoV-2) (UniProt P0DTC2)
[7] = molecular target: SARS-CoV-2 BA.2.12.1 RBD, biotinylated (SARS-CoV-2) (UniProt P0DTC2)
[8] = molecular target: SARS-CoV-2 BA.2.86 RBD, biotinylated (SARS-CoV-2) (UniProt P0DTC2)

## TRI2-2 homotrimeric miniprotein inhibitor (designed binder)
[1]
  pKd: 9.18
  koff: 0.000105 s⁻¹
  kon: 160000 M⁻¹ s⁻¹
[2]
  pKd: 11.92
  koff: 3.46e-07 s⁻¹
  kon: 286000 M⁻¹ s⁻¹
[3]
  pKd: 10.51
  koff: 9.92e-06 s⁻¹
  kon: 325000 M⁻¹ s⁻¹
[4]
  pKd: 9.27
  koff: 8.93e-05 s⁻¹
  kon: 165000 M⁻¹ s⁻¹
[5]
  pKd: 11.94
  koff: 2.95e-07 s⁻¹
  kon: 259000 M⁻¹ s⁻¹
[6]
  pKd: 9.68
  koff: 3.36e-05 s⁻¹
  kon: 160000 M⁻¹ s⁻¹
[7]
  pKd: 9.07
  koff: 0.000117 s⁻¹
  kon: 137000 M⁻¹ s⁻¹
[8]
  pKd: 9.41
  koff: 0.000131 s⁻¹
  kon: 339000 M⁻¹ s⁻¹

From PMC12901202
